Experiments:
Test in all cases: cell-based or functional assay
[1] = molecular target: collagen IV/galectin-8 (hit ECM combination) (human) (UniProt P02462)
[2] = molecular target: collagen I/laminin (hit ECM combination) (human) (UniProt P02452)
[3] = molecular target: collagen II/galectin-4 (hit ECM combination) (human) (UniProt P02458)

Measured: reduction of cellular attachment after blocking the integrin with an antibody

Chain of collagen II/galectin-4 (hit ECM combination) (human) (P02458 other isoform, or with tags, fused parts or gaps limits assumed, chain 1 of 2): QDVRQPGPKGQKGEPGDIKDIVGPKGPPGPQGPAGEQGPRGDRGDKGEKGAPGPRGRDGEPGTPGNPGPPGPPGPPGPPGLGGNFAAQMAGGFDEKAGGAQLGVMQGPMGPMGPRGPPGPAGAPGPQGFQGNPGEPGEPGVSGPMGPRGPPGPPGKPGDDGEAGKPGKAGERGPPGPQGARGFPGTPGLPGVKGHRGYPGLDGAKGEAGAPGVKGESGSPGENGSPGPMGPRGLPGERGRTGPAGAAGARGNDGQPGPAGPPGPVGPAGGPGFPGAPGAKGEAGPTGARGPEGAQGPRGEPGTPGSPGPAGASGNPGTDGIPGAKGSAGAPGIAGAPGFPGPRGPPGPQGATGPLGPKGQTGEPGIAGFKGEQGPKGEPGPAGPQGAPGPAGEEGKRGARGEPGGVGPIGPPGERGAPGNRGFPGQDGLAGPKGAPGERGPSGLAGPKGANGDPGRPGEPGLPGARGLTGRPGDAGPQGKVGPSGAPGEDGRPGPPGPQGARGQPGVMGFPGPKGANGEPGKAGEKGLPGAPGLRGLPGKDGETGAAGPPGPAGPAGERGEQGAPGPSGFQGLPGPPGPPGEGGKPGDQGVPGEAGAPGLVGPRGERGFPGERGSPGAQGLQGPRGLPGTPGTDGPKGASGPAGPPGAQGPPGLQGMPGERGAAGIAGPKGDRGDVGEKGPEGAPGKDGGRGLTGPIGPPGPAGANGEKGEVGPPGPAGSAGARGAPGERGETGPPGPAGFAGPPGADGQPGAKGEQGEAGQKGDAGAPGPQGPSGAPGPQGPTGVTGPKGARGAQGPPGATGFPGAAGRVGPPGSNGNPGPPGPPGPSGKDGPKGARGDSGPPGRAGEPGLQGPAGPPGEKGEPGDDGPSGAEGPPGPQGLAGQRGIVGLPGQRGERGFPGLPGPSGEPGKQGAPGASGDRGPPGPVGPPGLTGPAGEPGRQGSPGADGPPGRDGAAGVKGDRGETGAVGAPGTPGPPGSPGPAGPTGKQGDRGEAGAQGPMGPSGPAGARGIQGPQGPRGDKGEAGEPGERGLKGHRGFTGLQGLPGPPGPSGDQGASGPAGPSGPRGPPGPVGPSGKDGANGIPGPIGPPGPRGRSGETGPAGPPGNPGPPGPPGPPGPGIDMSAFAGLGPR
Chain of collagen II/galectin-4 (hit ECM combination) (human) (chain, as listed by the source limits assumed, chain 2 of 2): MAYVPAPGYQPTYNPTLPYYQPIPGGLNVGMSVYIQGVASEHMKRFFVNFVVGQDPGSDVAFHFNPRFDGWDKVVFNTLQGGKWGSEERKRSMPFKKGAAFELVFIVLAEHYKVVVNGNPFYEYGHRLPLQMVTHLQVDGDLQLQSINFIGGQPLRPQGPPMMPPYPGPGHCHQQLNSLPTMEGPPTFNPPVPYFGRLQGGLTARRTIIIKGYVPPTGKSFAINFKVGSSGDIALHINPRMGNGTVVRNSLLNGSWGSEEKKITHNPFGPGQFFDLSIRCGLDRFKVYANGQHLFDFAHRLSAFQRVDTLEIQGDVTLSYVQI
Chain of collagen IV/galectin-8 (hit ECM combination) (human) (P02462 173-1669 P555T limits assumed, chain 1 of 2): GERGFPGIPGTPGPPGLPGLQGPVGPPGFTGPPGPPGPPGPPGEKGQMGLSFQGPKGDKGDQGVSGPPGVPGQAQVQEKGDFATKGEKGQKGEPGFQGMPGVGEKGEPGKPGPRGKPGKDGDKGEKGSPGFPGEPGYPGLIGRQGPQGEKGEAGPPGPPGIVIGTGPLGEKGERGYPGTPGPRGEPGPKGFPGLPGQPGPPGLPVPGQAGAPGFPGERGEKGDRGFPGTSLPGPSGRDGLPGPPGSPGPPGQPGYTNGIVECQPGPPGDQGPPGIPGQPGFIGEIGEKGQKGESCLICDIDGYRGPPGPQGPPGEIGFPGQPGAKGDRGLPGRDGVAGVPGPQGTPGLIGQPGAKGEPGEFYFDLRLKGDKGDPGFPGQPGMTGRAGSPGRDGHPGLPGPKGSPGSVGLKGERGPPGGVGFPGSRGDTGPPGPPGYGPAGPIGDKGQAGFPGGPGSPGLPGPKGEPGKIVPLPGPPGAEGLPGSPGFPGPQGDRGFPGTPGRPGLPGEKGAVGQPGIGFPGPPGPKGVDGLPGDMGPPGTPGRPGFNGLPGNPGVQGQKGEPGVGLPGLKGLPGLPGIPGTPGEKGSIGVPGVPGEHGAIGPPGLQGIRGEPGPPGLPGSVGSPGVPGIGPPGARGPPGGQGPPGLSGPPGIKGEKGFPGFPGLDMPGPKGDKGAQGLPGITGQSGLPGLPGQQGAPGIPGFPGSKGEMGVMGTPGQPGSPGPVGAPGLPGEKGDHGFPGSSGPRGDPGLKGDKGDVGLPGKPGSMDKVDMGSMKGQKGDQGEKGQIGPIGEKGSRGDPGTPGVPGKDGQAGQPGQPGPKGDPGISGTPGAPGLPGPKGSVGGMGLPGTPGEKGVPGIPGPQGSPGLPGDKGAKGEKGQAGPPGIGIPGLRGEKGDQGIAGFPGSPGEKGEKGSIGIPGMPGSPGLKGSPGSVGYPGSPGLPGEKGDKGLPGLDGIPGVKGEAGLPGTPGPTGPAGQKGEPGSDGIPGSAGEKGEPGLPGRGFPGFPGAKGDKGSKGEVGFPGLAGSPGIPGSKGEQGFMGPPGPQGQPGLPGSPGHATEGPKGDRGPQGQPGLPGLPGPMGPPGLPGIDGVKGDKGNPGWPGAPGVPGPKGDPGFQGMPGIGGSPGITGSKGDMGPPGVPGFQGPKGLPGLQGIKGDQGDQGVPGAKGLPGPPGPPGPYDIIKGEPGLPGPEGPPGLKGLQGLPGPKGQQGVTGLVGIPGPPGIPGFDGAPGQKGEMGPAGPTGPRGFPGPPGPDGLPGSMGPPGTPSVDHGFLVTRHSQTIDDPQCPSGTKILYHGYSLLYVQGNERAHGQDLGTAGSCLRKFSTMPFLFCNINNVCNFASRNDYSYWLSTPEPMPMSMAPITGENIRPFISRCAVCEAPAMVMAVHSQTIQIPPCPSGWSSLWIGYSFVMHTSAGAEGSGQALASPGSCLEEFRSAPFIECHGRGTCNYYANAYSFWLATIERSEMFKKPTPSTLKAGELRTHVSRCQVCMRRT
Chain of collagen IV/galectin-8 (hit ECM combination) (human) (chain, as listed by the source limits assumed, chain 2 of 2): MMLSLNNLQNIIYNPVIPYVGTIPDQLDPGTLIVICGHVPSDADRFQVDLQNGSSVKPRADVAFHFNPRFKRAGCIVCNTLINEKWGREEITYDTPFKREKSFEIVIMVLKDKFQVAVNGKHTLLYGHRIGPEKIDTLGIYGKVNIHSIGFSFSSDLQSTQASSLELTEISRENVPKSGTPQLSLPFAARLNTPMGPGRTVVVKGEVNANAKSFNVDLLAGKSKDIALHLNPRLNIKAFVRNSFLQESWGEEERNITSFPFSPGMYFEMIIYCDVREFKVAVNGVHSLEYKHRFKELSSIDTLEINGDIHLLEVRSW

α1 integrin (from UniProt P56199 29-1179) (receptor)
50%: all assays above

Source: US20130274124A1
